Blank lines part the entries; values can stand above or below the molecule they belong to.
Experiments:
[1] = tested on: HUVEC; assay: Transwell assay of vascular endothelial cell permeability; assay type: cell-based, human; conditions: 30 minutes
Procedure: Based on the above experimental results, as experiments for confirming the improvement of vascular endothelial cell permeability, single peptides and Fc-TPP were treated to conduct Transwell assay.
Specifically, HUVECs were seeded into Transwell plate (Corning) at a density of 5×10^4 per well in a upper chamber using Endothelial Growth Medium, PromoCell (EGM) medium, followed by incubation at 37° C. for 3 days under 5% CO2 condition. […] Thereafter, Dextran-FITC (Sigma) 50 μg was put into the upper chamber and the medium of the lower chamber was sampled to measure its fluorescence after 30 minutes, using the principle that a fluorescent substance is observed in the lower chamber when the permeability in HUVECs was improved.

[2] = tested on: VE-cadherin in HUVEC; assay: Western blot of VE-cadherin in HUVEC; assay type: cell-based, human; conditions: single peptides and Fc-TPP 1 μM, 10 minutes
Text: During this process, a decrease in vascular endothelial (VE)-cadherin, phosphorylation, etc. of endothelial cells occur. That is, VE-cadherin or epithelial (E)-cadherin involves in adhesion between endothelial cells, while forming the base of adherent junction between endothelial cells and epithelial cells. The change in molecules relieve the density of adherent junction, which results in increasing permeability of blood vessels and improving intracellular permeability.
As an experimental method for indirectly confirming improvement of vascular permeability based thereon, a change in VE-cadherin was confirmed through a Western blot. Specifically, HUVECs were seeded into 6-well plates at a density of 3×10^5 per well, followed by incubation for 24 hours. Thereafter, single peptides and Fc-TPP were treated with 1 μM for 10 minutes to perform a Western blot. Gel subjected to SDS-PAGE was transported into PVDF membrane, a primary antibody (SantaCruz) and an HRP-conjugated secondary antibody (SantaCruz) which recognize VE-cadherin and (3-actin, respectively were used for detection. ImageQuant LAS4000 mini (GE Healthcare) was used for analysis.

[3] = tested on: b1b2 domains of neuropilin-1 and -2; assay: ELISA binding to b1b2 domains of neuropilin-1 and -2; conditions: 100 nM (peptides 100 nM, 1 μM)
Procedure: The binding capacity of purified Fc-TPP to b1b2 domains of neuropilin-1 and -2 (neuropilin (NRP)1/2-b1b1 domain) was confirmed in Enzyme Linked Immunosorbent Assay (ELISA).
The target molecules, b1b2 domains (273-586) of neuropilin-1 and b1b2 domains (275-595) of neuropilin-2, and the control group VEGFR2 (46-753) were bound in an amount of 1 μg each in 96-well EIA/RIA plates (COSTAR Corning In., USA) at room temperature for 1 hour, and then washed three times for 10 minutes with 0.1% PBST (0.1% Tween20, pH 7.4, 137 mM NaCl, 10 mM Phosphate, 2.7 mM KCl, SIGMA-ALDRICH co., USA). After binding for 1 hour with 5% skim milk (pH 7.4, 137 mM NaCl, 10 mM Phosphate, 2.7 mM KCl, SIGMA-ALDRICH co., USA), it was washed three times for 10 minutes with 0.1% PBST (0.1% Tween20, pH 7.4, 137 mM NaCl, 10 mM Phosphate, 2.7 mM KCl, SIGMA-ALDRICH co., USA). […] After binding to alkaline phosphatase (AP)-conjugated anti-biotin mAb (Sigma, USA) and reacting with pnitrophenyl […] (pNPP, SIGMA-ALDRICH co., USA), absorbance at 405 nm was quantified. From the ELISA result obtained from 30 minute-reaction of AP-pNPP, the binding capacity of expressed and purified Fc-TPP to b1b2 domains of neuropilin-1 and -2 was confirmed.

[4] = tested on: A431 tumor; assay: IHC of Fc-TPP infiltration in A431 tumor tissue; assay type: in vivo, Balb/c nude mice; conditions: A431 xenograft, 5 mg/kg intravenously, 3 hours
Procedure: 3 hours after injection, tumors were extracted from mice to conduct immunohistochemistry experiment. The extracted tumors were cut into 20 μm thick using a frozen section method, and stained with a primary antibody, CD31 antibody (BD Pharmingen), and a TRITC (red fluorescence)-conjugated secondary antibody. Further, in order to observe Fc-TPP distributed in the tissues, FITC (green fluorescence)-conjugated antibodies recognizing Fc were used.

[5] = target: T1, NRP2-b1b2 (b1b2 domain of neuropilin-2) (Homo sapiens, UniProt O60462); assay: SPR (Biacore2000) binding to b1b2 domain of neuropilin-2; conditions: for Kd: read-out: Binding affinity KD
T1 construct: b1b2 domains (275-595) of neuropilin-2
T1 sequence (O60462 275-595): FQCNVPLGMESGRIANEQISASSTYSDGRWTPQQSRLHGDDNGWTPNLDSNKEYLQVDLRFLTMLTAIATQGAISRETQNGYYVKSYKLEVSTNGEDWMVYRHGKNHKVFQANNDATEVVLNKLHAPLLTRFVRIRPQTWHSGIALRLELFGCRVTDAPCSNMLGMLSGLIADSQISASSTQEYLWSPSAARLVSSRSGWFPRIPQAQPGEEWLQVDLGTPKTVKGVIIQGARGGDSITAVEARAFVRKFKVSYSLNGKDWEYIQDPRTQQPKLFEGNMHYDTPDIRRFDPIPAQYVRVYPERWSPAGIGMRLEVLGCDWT
Procedure: (§1) Specifically, each b1b2 domain of neuropilin-1 and -2 was diluted with 10 mM Na-acetate buffer (pH 4.0), and fixed onto CMS sensor chips (GE healthcare, USA) in about 1000 response units (RU). […] After bond and dissociation analysis, the regeneration of CMS chip was performed by streaming a buffer (20 Mm NaOH, 1 M NaCl, pH 10.0) at a stream velocity 30 μl/min for 1 minute.

[6] = target: T2, NRP1-b1b2 (b1b2 domain of neuropilin-1) (Homo sapiens, UniProt O14786); assay: SPR (Biacore2000) binding to b1b2 domain of neuropilin-1; conditions: NRP1-b1b2, SPR; for Kd: read-out: Binding affinity KD
T2 construct: b1b2 domains (273-586) of neuropilin-1
T2 sequence (O14786 273-586): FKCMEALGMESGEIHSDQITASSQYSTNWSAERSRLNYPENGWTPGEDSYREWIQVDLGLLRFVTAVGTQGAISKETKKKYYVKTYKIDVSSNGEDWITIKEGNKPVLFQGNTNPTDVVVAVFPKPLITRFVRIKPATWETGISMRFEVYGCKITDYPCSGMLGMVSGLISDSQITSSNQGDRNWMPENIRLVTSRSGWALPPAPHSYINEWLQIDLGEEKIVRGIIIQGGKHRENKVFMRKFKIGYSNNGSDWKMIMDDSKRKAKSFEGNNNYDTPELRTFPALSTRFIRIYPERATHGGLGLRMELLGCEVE
Procedure: as §1

[7] = target: b1b2 domains (275-595) of neuropilin-2 (Homo sapiens (Human)) (UniProt O60462); assay: SPR, b1b2 domain on chip
[8] = target: b1b2 domains (273-586) of neuropilin-1 (Homo sapiens (Human)) (UniProt O14786); assay: SPR, b1b2 domain on chip
[9] = tested on: FaDu tumor; assay: In vivo Evans Blue assay of vascular permeability; design: species or system Balb/c nude mice; conditions: FaDu xenograft, 400 ng, 40 minutes
Procedure: Additionally, in order to confirm the improvement of vascular permeability in vivo, Evans Blue assay was conducted. […] 40 minutes after injection, the mice were perfused through the heart with PBS containing 1% BSA, and tumor tissues were extracted (FIG. 11d). Then, the extracted tissues were put into 1 ml of […] (Sigma) and reacted at 37° C. overnight under mild shaking condition. Thereafter, the supernatant was obtained from centrifugation to measure the absorbance (600 nm), and the amount that Evans Blue penetrated was quantified.

[10] = single peptides and Fc-TPP 1 μM

binding to b1b2 domains of NRP-1 and -2 (ELISA, absorbance 405 nm) [3]: stronger bond
Molecule: A22p: A22 with Asn758Pro, SEQ ID NO: 2, HTPGNSNKWKHLQENKKGRPRR (A22p) [Clone A22p]
permeability of HUVEC (Transwell, Dextran-FITC) [1, 10]: improvement of vascular permeability was not induced
change in VE-cadherin (Western blot) [2]: no change in VE-cadherin
infiltration into tumor tissue (IHC) [4]: did not infiltrate into the tissues

binding to b1b2 domains of NRP-1 and -2 (ELISA, absorbance 405 nm) [3]: stronger bond
Molecule: F22p: F22 with Asn777Pro, SEQ ID NO: 4, REAPGAPRSPEPQDQKKPRPRR (F22p) [Clone F22p]
permeability of HUVEC (Transwell, Dextran-FITC) [1, 10]: permeability of HUVEC was not improved

The next lines start with the molecule.

Molecule: Fc-4A22: Human IgG1 Fc with TPP 4A22 (SEQ ID NO: 5) fused to its C-terminus (GAGAHTPGNSNKWKHLQENKKGRNRR)
permeability of HUVEC (Transwell, Dextran-FITC) [1, 10]: improvement of vascular permeability was not induced
Association rate ka [5]: 6.09 ± 0.63 × 10^3 M^−1s^−1
Dissociation rate kd [5]: 1.23 ± 0.16 × 10^−1 s^−1
Kd [5]: 20200 nM
Association rate ka [6]: 1.02 ± 0.14 × 10^3 M^−1s^−1
Dissociation rate kd [6]: 1.93 ± 0.05 × 10^−2 s^−1
Kd [6]: 18000 nM
change in VE-cadherin (Western blot) [2]: VE-cadherin was not decreased

Molecule: F22: Sema3F-derived 22 amino acid TPP, residues 758-779, SEQ ID NO: 3, REAPGAPRSPEPQDQKKPRNRR (F22) [Clone F22]
permeability of HUVEC (Transwell, Dextran-FITC) [1, 10]: permeability of HUVEC was not improved

Molecule: Fc-15F22: Human IgG1 Fc with (GGGGS)3-F22 (SEQ ID NO: 9) fused to its C-terminus (GGGGSGGGGSGGGGSREAPGAPRSPEPQDQKKPRNRR)
permeability of HUVEC (Transwell, Dextran-FITC) [1, 10]: permeability of HUVEC was not improved
Association rate ka [5]: 1.05 ± 0.03 × 10^3 M^−1s^−1
Dissociation rate kd [5]: 1.30 ± 0.21 × 10^−2 s^−1
Kd [5]: 12400 nM
Association rate ka [6]: 1.35 ± 0.24 × 10^3 M^−1s^−1
Dissociation rate kd [6]: 5.34 ± 0.24 × 10^−2 s^−1
Kd [6]: 39700 nM

Molecule: A22: Sema3A-derived 22 amino acid TPP, residues 739-760, SEQ ID NO: 1, HTPGNSNKWKHLQENKKGRNRR (A22) [Clone A22]
permeability of HUVEC (Transwell, Dextran-FITC) [1, 10]: improvement of vascular permeability was not induced
change in VE-cadherin (Western blot) [2]: no change in VE-cadherin
infiltration into tumor tissue (IHC) [4]: did not infiltrate into the tissues

Molecule: Sema3F (19-779) (from UniProt Q13275) (ligand)
Kd [7]: 345 nM
koff [7]: 0.0015 s⁻¹
kon [7]: 4340 M⁻¹ s⁻¹
Kd [8]: 245 nM
koff [8]: 0.000973 s⁻¹
kon [8]: 3980 M⁻¹ s⁻¹

Molecule: Fc-4F22: Human IgG1 Fc with TPP 4F22 (SEQ ID NO: 8) fused to its C-terminus (GAGAREAPGAPRSPEPQDQKKPRNRR)
permeability of HUVEC (Transwell, Dextran-FITC) [1, 10]: permeability of HUVEC was not improved
Association rate ka [5]: 1.21 ± 0.15 × 10^2 M^−1s^−1
Dissociation rate kd [5]: 1.57 ± 0.40 × 10^−3 s^−1
Kd [5]: 13000 nM
Association rate ka [6]: 2.18 ± 0.12 × 10^2 M^−1s^−1
Dissociation rate kd [6]: 2.25 ± 0.18 × 10^−3 s^−1
Kd [6]: 10300 nM

Molecule: Sema3A (26-760) (from UniProt Q14563) (ligand)
Kd [7]: 231 nM
koff [7]: 0.00161 s⁻¹
kon [7]: 6960 M⁻¹ s⁻¹
Kd [8]: 27.9 nM
koff [8]: 0.000808 s⁻¹
kon [8]: 28900 M⁻¹ s⁻¹

Molecule: VEGF165A (from UniProt P15692-4) (ligand)
Kd [7]: 32 nM
koff [7]: 0.00373 s⁻¹
kon [7]: 117000 M⁻¹ s⁻¹
Kd [8]: 3.51 nM
koff [8]: 0.00342 s⁻¹
kon [8]: 975000 M⁻¹ s⁻¹

B1: Sema3A: Secreted class 3 semaphorin 3A (26-760), neuropilin ligand, control group (protein)
chain: KNNVPRLKLSYKEMLESNNVITFNGLANSSSYHTFLLDEERSRLYVGAKDHIFSFDLVNIKDFQKIVWPVSYTRRDECKWAGKDILKECANFIKVLKAYNQTHLYACGTGAFHPICTYIEIGHHPEDNIFKLENSHFENGRGKSPYDPKLLTASLLIDGELYSGTAADFMGRDFAIFRTLGHHHPIRTEQHDSRWLNDPKFISAHLISESDNPEDDKVYFFFRENAIDGEHSGKATHARIGQICKNDFGGHRSLVNKWTTFLKARLICSVPGPNGIDTHFDELQDVFLMNFKDPKNPVVYGVFTTSSNIFKGSAVCMYSMSDVRRVFLGPYAHRDGPNYQWVPYQGRVPYPRPGTCPSKTFGGFDSTKDLPDDVITFARSHPAMYNPVFPMNNRPIVIKTDVNYQFTQIVVDRVDAEDGQYDVMFIGTDVGTVLKVVSIPKETWYDLEEVLLEEMTVFREPTAISAMELSTKQQQLYIGSTAGVAQLPLHRCDIYGKACAECCLARDPYCAWDGSACSRYFPTAKRRTRRQDIRNGDPLTHCSDLHHDNHHGHSPEERIIYGVENSSTFLECSPKSQRALVYWQFQRRNEERKEEIRVDDHIIRTDQGLLLRSLQQKDSGNYLCHAVEHGFIQTLLKVTLEVIDTEHLEELLHKDDDGDGSKTKEMSNSMTPSQKVWYRDFMQLINHPNLNTMDEFCEQVWKRDRKQRRQRPGHTPGNSNKWKHLQENKKGRNRR
vascular permeability (Evans Blue) [9]: increased vascular permeability
permeability of HUVEC (Transwell, Dextran-FITC) ([1]; control ligands about 1.3 nM): permeability of HUVEC was improved
Association rate ka [5]: 6.96 ± 0.03 × 10^3 M^−1s^−1
Dissociation rate kd [5]: 1.61 ± 0.28 × 10^−3 s^−1
Kd [5]: 231 nM
Association rate ka [6]: 2.89 ± 0.07 × 10^4 M^−1s^−1
Dissociation rate kd [6]: 8.08 ± 0.06 × 10^−4 s^−1
Kd [6]: 27.9 nM
change in VE-cadherin (Western blot) [2]: a decrease in VE-cadherin was observed
